Data: patent US20230257435A1, “Wound Healing Composition and Uses Thereof” (AGENCY FOR SCIENCE, TECHNOLOGY AND RESEARCH, priority 2020, published 2023)

What was measured:
human skin explants = assay: Human skin explant (EPIDERM-FT) punch wound healing; format: cell-based; details: explants treated with Agrin siRNA #1; 20 μg sAgrin in ointment on days 2, 4, 6
Text: Human epidermal keratinocyte cell line HaCaT was maintained in Dulbecco's modified Eagle's Medium (DMEM) (Gibco) containing 10% fetal bovine serum (FBS) with Penicillin and Streptomycin (Gibco Cat #15140148) antibiotics. The human foreskin normal fibroblasts (BJ) obtained from ATCC (ATCC® CRL-2522™) were passaged in DMEM (Gibco) with antibiotics. Normal primary adult epidermal keratinocytes (HEK) purchased from CELL Applications, Inc., (Cat #C-12003) were maintained in manufacturer provided keratinocyte growth medium as recommended. Primary keratinocytes from C57BL mouse strain were purchased from CellBiologics (Cat #C57-6066K) and maintained as per manufacturer recommended Epithelial cell growth medium (Cat #M6621, CellBiologics). The mouse primary dermal fibroblasts were isolated from C57BL mouse strain (Cat #m-GFP-6067), and cultured in complete fibroblast medium (CellBiologics, Cat #M2267). […]
Human skin equivalents and mice skin tissues were harvested, embedded, and subjected to routine histology using Hematoxylin and Eosin. […] Quantification of collagen as a marker for ECM deposition was done by picrosirius red staining of paraffin embedded mouse skin tissues, as per previously published protocol.

mouse skin wounds = assay: Cytokine and chemokine expression in mouse skin wounds; format: in vivo
Experimental: The photographs of a representative wound for each condition is shown above. The respective p values for the selected group of significant genes are represent in tabular form (n=3 mice per group, Multiple t tests). (b) Western blot analysis in the mouse skin treated as in (a) showing the protein expression of selected proteins. GAPDH served as a loading control (n=2 independent mice wounds were analyzed for each group).
Indicated cells post-manipulation were washed twice with cold Phosphate buffered saline (PBS) and lysed with cold 1% NP-40 lysis buffer supplemented with 1× protease inhibitor cocktail (Roche Applied Biosciences) for 15 mins at 4° C. […] The density of the various bands was quantified using the Image-J software.
Total RNA was extracted from indicated cells using Qiagen RNeasy mini kit as per the manufacturer's recommended protocol. […] For RNA-sequencing, the RNA quality was analyzed on a Bioanalyzer instrument (Agilent) using the Agilent RNA 6000 Pico Kit. […] Purified libraries were quantified by qPCR (KAPA Library Quantification Kit for Illumina, Roche). […] The condition of sequencing was represented by a single read high output run at 75 bp read length. Raw reads from fastq files were aligned to the hg38 genome using STAR 2.6.1d. […] The relative number of reads mapping to each gene was quantified with htseqcount on features from the gtf file gencode.v29.annotation.gtf. […]

pMLC = assay: Force transmission via ligand conjugated magnetic beads; format: cell-based, human

B1: sAgrin: C-terminus recombinant Agrin fragment containing 8 amino acid 'Z8' insert and LG3 domain (SEQ ID NO: 7), His-tagged, expressed in E. coli (protein)
chain: DTLAFDGRTFVEYLNAVTESELANEIPVEKALQSNHFELSLRTEATQGLVLWSGKATERADYVALAIVDGHLQLSYNLGSQPVVLRSTVPVNTNRWLRVVAHREQREGSLQVGNEAPVTGSSPLGATQLDTDGALWLGGLPELPVGPALPKAYGTGFVGCLRDVVVGRHPLHLLEDAVTKPELRPCPTP
modifications: His tag
In the case of B1, the “wound healing and migration of keratinocytes (rescue)” value (human skin explants) is reported as “significantly rescued the wound healing and the migration of keratinocytes”, the “protein expression of TGF-β1, VEGF-A and MCP-1” value (mouse skin wounds; vs BSA and Collagen) is reported as “augmented protein expression(s) of TGF-β1, VEGF-A and MCP-1” and the “mRNA of TGF-β1, VEGF-A, MCP-1, MIP-1β and MIP-2” value (mouse skin wounds; within 48 h post-injury, vs BSA or Collagen) is reported as “significantly induced”. The “pMLC recruitment in control cells upon force (bead pull-down Western)” value (pMLC; siControl cells) was “greater pMLC recruitment in control cells compared to FN, but similar to that induced by Syndecan-4” and the “pMLC with temporal increase of force application” value (pMLC; up to 60 min) was “enhanced pMLC mechanoperception”.
